Reference: patent US20240175877A1 (GENERAL HOSPITAL, published 2024)

Assays:
Ara h 2 [1] = target: T1, Ara h 2 (peanut, UniProt Q6PSU2 23-172, 4-hydroxyproline at positions 67, 74, and 86; biotinylated in the BLI assays); assay: SPR, Biacore 3000
T1 construct: BLI: biotinylated (native) Ara h 2 on streptavidin sensors; also called conglutin-7; peanut allergen
T1 sequence: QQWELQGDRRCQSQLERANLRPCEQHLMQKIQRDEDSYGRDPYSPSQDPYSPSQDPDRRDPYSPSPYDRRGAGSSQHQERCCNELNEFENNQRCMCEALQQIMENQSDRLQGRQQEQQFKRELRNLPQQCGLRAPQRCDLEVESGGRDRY
Experimental: Calculated equilibrium dissociative constants (K)) for antigen binding to anti-Ara h 2 antibodies was determined using a real-time surface plasmon resonance biosensor (Biacore 3000) assay.

Ara h 2 [2] = target: T1, Ara h 2; assay: epitope bin summary
Ara h 2 [3] = target: T1, Ara h 2; assay: epitope summary
Peptide_009 = target: T2, Peptide_009 (peanut); assay: peptide microarray
T2 construct: also called peptide 9
T2 peptide: WELQGDRRCQSQLER
Experimental: (§1) The peptide mapping using microarrays was performed with 40 antibody samples diluted 1:1000 in blocking buffer (see below). Sample dilutions were incubated for 1 hour at 30° C. on multiwell microarray slides. The slides contained 21 individual mini-arrays (1 mini-array per sample dilution).
(§2) Subsequent to sample incubation, secondary fluorescently labeled anti-human-IgG antibody at 1 μg/ml was added into the corresponding wells and left to react for 1 hour.
(§3) Additional control incubations applying the secondary antibody only was performed in parallel on the microarray slides to assess false-positive binding to peptides.

Peptide_010 = target: T3, Peptide_010 (peanut); assay: peptide microarray
T3 construct: also called peptide 10
T3 peptide: QGDRRCQSQLERANL
Experimental: as §1, §2, §3

Peptide_011 = target: T4, Peptide_011 (peanut); assay: peptide microarray
T4 construct: also called peptide 11
T4 peptide: RRCQSQLERANLRPC
Experimental: as §1, §2, §3

Peptide_012 = target: T5, Peptide_012 (peanut); assay: peptide microarray
T5 construct: also called peptide 12
T5 peptide: QSQLERANLRPCEQH
Experimental: as §1, §2, §3

B1: 13BU2T5 (antibody, V domains shown)
VH: QVQLQESGPGLVKPSETLSLTCTVSGGSMSSYYWGWIRQPAGRGLEWIGRIFTTGSTIYNASLNSRVSMSVDTSKNQFSLKLTSVTAADTALYFCVRDRRGRSHDSNWYWYFDLWGRGTLVTVSS
VL: RVIITCRASQTLSRNLNWYQQKPGEAPKLLIYGASTLQSGVPSRFTGSGSGTDFTLIISGLQPEDFATYYCQQSDNTPRTFGQGT
Work on B1 yielded a Kd (Ara h 2 [1]) of 0.112 nM.

B2: 27FU1P3A4 (antibody, IgG1, V domains shown)
VH: ESGGGLVQPGGSLRLSCVASGFPFDDFVFAWVRQAPGGGLEWVSAISSRRTNTFYADSVKGRFTISRDNTRKTVNLQMNSLRGEDTAVYYCAKGETRYLEWIIQSSGFDYWGPGTLVAVSS
VL: QSPSSLSASVGERVTITCRANQTISTYLNWYQQKVGKAPKSLIRAASSLESGVPSRFSGSGSGTDFTLTINSLQREDFATYYCQQTYNVPPTFGQGTRVELK
notes: recombinant IgG1
B2: binds (Ara h 2 [2]).

B3: 89BU7P1B10 (antibody, IgG1, V domains shown)
VH: QESGPGLVKPSETLSLTCTVSGGSIGRHYWSWIRQPPGKGLEWIAYIYDSGSTKYNPSLESRVTISEDTSQNQFSLKLTSVTAADTAIYYCARHNAPYGGNSDDYFEFWGPGTLVTVSS
VL: TQSPSSLSASVGDRVTITCRANETISDYLNWYQGKPGTAPKPLIYAASSLQSGVPSRFSGSGSETYFTLTISSLQPEDFATYYCQQSYSVPLTFGGGTKVESK
notes: recombinant IgG1
B3: binds (Ara h 2 [2]).

B4: 14FU2P1D6 (antibody, IgG1, V domains shown)
VH: ESGPGLVKPSETLSLTCTVSGDSISSYYWSWIRQPAGKGLEWIGRIFTSGSTNINPSLKSRVTMSVDTSKNQFSLQLGSVTAADTAIYYCAKHTRDFWSDDSRVHWYFNLWGRGTLVTVSS
VL: QSPGTLSLSPGERATLSCRASQSVSNNFLAWYQQQPGQAPSLLIYGASTRATGIPDRFSGSGSGTDFTLTISRLEPEDFAVYFCQQYDSSPYTFGQGTKLEIK
notes: recombinant IgG1; also called 14FU1P1D6
B4: binds (Ara h 2 [2]).

B5: 15FU1P1A3 (antibody, V domains shown)
VH: QSGAEVKKPGASVKISCKASGYTFTTYAMHWVRQAPGQRLEWMGGINAGNGNPKYSEKFQDRVTITRDTSATTAYMELSSLRSEDTAVYYCARDAAGTRGNWLDPWGQGTLVTVSS
VL: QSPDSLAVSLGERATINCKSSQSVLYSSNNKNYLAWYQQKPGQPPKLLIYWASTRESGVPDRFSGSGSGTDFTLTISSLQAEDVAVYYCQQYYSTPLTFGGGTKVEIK
notes: recombinant IgG1
B5: binds (Ara h 2 [2]).

B6: 22BU2S4 (antibody, IgG1, V domains shown)
VH: RCKLQESGPGLVKPSESLSLTCNVSGMSISSYYWSWIRQPAGKGLEWIGRIFTTGSTKDNPSLKSRVTMSVDTSRNQFSLTLTSVTAADTAVYYCARLRRVVVPRVSWYFDLWGHGTLVTVSS
VL: TQSPSSLSASVGDRVTITCQASQDISKSLNWYHQKPGKAPTVLIYDASNLETGVPSRFSGSGSGTEFTFTISSLQSEDFGTYYCQQYDNVPMYTFGQGTKVETK
notes: recombinant IgG1
B6: binds (Ara h 2 [3]).

B7: 23BU2P34 (antibody, IgG1, V domains shown)
VH: QVQLVESGGLVVQPGGSLRLSCEASGFTFDDYTMHWVRQSPQKGLEWVSLIRWDGSRTEYADSVKGRFTISRDNSKNSLYLQMNTLRADDSAFYFCVKDGGLRYFDSWGQGTLVTVSS
VL: EIVMTQSPLSLPVTPGEPASISCRSSQSLLHSNGIHYLDWYLQKPGQSPQLLIYLGSKRASGVPDRFSGSGSGTDFTLKISRVEAEDVGVYYCMQSLQTFTFGPGTKVDIK
notes: recombinant IgG1
B7: binds (Ara h 2 [3]).

B8: 13BU2T4 (antibody, IgG1, V domains shown)
VH: ESGPRLVKPSETLSLTCIVSGDSISSYYWGWIRQPAGRGLEWIGRIFTSGSTTYNPSLKSRVSMSVETSKNQFSLTLTSVTAADTAVYFCARDRRALSSDGNWYWYFDLWGRGTLVAVSS
VL: TQSPSSLSASVGDRVTITCRASQTITRNLNWYQQKSGEAPKLLIYGASILQSGVPSRFTGSGSGTDFTLTISNLQPEDFASYSCQQSDNTPRTFGQGTKVEIK
notes: recombinant IgG1
With B8 the Kd (Ara h 2 [1]) was 0.00143 nM.

B9: 15FU1P3A1 (antibody, IgG1, V domains shown)
VH: LVQSGAEVKKPGASVKVSCKASGYTFTRYDINWVRQATGQGLEWMGWMNPKSGETGYAQKFHGRVIMSWNTSISTAYMELSSLRSEDTAVYYCTRGVDSGVWGQGTTVTVSS
VL: TQSPDSLAVSLGERATINCKSSQSVLDSSNNKKFLAWFQQKPGQRPKLLIYWASTRESGVPDRFTGSGSGTDFTLTISSLQAEDVAVYYCQQYYSPPHTFGQGTKLEIK
notes: recombinant IgG1
B9: binds (Peptide_009); binds (Peptide_010); binds (Peptide_011). B9: binds (Peptide_012); binds (Ara h 2 [2]).

B10: 13FU1P1A4 (antibody, IgG1, V domains shown)
VH: VQLVESGGTLGQPGGSLRLSCTASGFTFNRFAINWVRQAPGKGLEWVAAISGTGAVTYYADSVEGRFSISRENSNNTVFLEMNNLRGEDTAVYFCAKDRTPVTNYYGMDVWGQGTTVTVSS
VL: TQSPSSLSASVGDRVIITCRGSQTIDNYLNWYQQKPGKAPRLLISAASSLQGGVPSRFSGSGYGTDFTLTISSLQPEDFATYYCQQTSSTPYTFGQGTKVEIK
notes: recombinant IgG1
B10: binds (Ara h 2 [2]).

B11: 23BU2P3 (antibody, IgG1, V domains shown)
VH: QVQLVESGGGLVQPGRSLRLSCAASGFIFADYTMHWVRQSPGKDLEWVSRISWNSGGVEYADSVKGRFTISRDNAKNSLYLQMNSLRVEDTALYYCVKDNGYRAFDLWGLGTMVTVSS
VL: DVVMTQSPVSLPVTPGEPASISCRSSQSLVHSNGYNYLDWYLQKPGQSPQLLIYMGSNRASGVPDRFSGSGSGTDFTLKISRVEAEDVGVYYCMQSLQTWTFGQGTKVEIK
notes: recombinant IgG1
B11: binds (Ara h 2 [3]).

B12: 13BU2T3 (antibody, IgG1, V domains shown)
VH: GGGVVQPGTSLRLSCVASGFTFRDYSMHWVRQAPGKGLEWVSFIRFDGTTKDYRDSVKGRFIISRDDSKNTLYLQMTSLRVEDTALYYCAKDNGWRAFDHWGQGALVTVSS
VL: VMTQSPLSLPVTPGEAASISCRSSQSLLHRNGYIYLDWYLQRPGQSPQLLISFVSKRASGAPDRFSGSGSGTDFTLTISRVEAEDFGVYFCMQALETPWTFGPGTKLEIK
notes: recombinant IgG1
For B12, the Kd (Ara h 2 [1]) was 0.193 nM.

B13: 11FUP1A2 (antibody, IgG1, V domains shown)
VH: ESGGAVVQPGGSLRLSCAASGFTVEDYTIHWVRQVPGKGLEWISLISWDGDRTAYTDSVKGRFTISRDNIKNSLYLLMNSLRTEDTALYYCVKDNGWRSFAYWGQGILVTVST
VL: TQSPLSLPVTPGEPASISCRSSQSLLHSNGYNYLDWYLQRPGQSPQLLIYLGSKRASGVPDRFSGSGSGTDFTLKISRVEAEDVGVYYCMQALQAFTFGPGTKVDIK
notes: recombinant IgG1
B13: binds (Ara h 2 [2]).

B14: 6BU4P2B1 (antibody, IgG1, V domains shown)
VH: VESGGGLIQPGRSLRLSCAVSGFSFDDYAMYWVRQVPGKGLEWVSGISWNSGTIEYADSVKGRFTISRDNAKKSLFLEMNSLRSEDTAIYYCAKGTGWELVSALENWGQGTVVTVSS
VL: QSPSSLSASVGNKVTITCRASQTISDYLNWYQQKPGKAPKLLIYAASSLQSAVPSRFAGSGSGTEFTLTISSLQPEDFATYYCQQSYSPPFTFGPGTKVDIK
notes: recombinant IgG1
B14: binds (Ara h 2 [2]).

B15: 23BU2P31 (antibody, IgG1, V domains shown)
VH: QVQLQESGPGLVEPSETLSLTCTVSGDPFTSYYWTWIRQPAGKGLEWLGRIFTTGSTSYNPSLKSRVTMSVDTSKSQFSLKLTAVTAADTAVYYCARVRRYCSGGRCYPYFYMDVWGKGTTVIVSS
VL: DIRETQSPSTLSASVGDRVTITCRASESISSWLAWYQQKPGKAPKLLIYEASTLETGVPSRFSGSGSGTEFTLTIRSLQPDDFATYYCQHYNSDSLTFGGGTKVEIK
notes: recombinant IgG1
B15: binds (Ara h 2 [3]).
